Source: paper PMC11392403

Target: recombinant Fasciola hepatica enolase (rFhENO) (Fasciola hepatica) (UniProt Q27655)
Experiment: SEC; Superdex 75 10/300 GL, 0.4 mL/min, 100 μg rFhENO injected; markers carbonic anhydrase 29 kDa, BSA 66 kDa, alcohol dehydrogenase 150 kDa; dimer to monomers

Substance “recombinant Fasciola hepatica enolase (rFhENO) (from UniProt Q27655 1-431) (enzyme)” has a percent of the protein eluting in the homodimeric form of 86.5% and a stoichiometry N of 2.
